# What was measured:
# [1] = biological target: feline FcRn complex (FcRn-α subunit and β-microglobulin) (feline); assay: SPR (Biacore), FcRn on SA chip, pH 7.4
# [2] = biological target: feline FcRn complex (FcRn-α subunit and β-microglobulin) (feline); assay: SPR (Biacore), FcRn on SA chip, pH 6
# [3] = biological target: feline FcRn complex (FcRn-α subunit and β-microglobulin), biotin labeled (feline); assay: SPR, pH 7.4
# [4] = biological target: feline FcRn complex (FcRn-α subunit and β-microglobulin), biotin labeled (feline); assay: SPR, pH 6
Kd [1] [nM],Kd [2] [nM],Kd [3] [nM],Kd [4] [nM],Molecule
26.1,0.322,–,–,"feline IgG1a mutant ID No. 366: S252Y, S434R, E430I (antibody)"
25.9,0.769,–,–,"feline IgG1a mutant ID No. 357: S252Y, S434R, A431K (antibody)"
28.3,0.748,–,–,"feline IgG1a mutant ID No. 358: S252Y, S434R, A431K (antibody)"
5910,5.45,–,–,"feline IgG1a mutant ID No. 278: S252R, S434H, Q311W (antibody)"
66.5,13.2,–,–,"feline IgG1a mutant ID No. 260: S252Y, S254T, T256E (antibody)"
28.9,0.296,–,–,"feline IgG1a mutant ID No. 365: S252Y, S434R, E430I (antibody)"
7.91,0.0406,–,–,"feline IgG1a mutant ID No. 246: S252Y, S428M, S434W (antibody, part only; not given: Variable domains, not shown: another chain or arm of the molecule) constant: ASTTAPSVFPLAPSCGTTSGATVALACLVLGYFPEPVTVSWNSGALTSGVHTFPAVLQASGLYSLSSMVTVPSSRWLSDTFTCNVAHPPSNTKVDKTVRKTDHPPGPKPCDCPKCPPPEMLGGPSIFIFPPKPKDTLYISRTPEVTCLVVDLGPDDSDVQITWFVDNTQVYTAKTSPREEQFNSTYRVVSVLPILHQDWLKGKEFKCKVNSKSLPSPIERTISKAKGQPHEPQVYVLPPAQEELSRNKVSVTCLIKSFHPPDIAVEWEITGQPEPENNYRTTPPQLDSDGTYFVYSKLSVDRSHWQRGNTYTCSVMHEALHWHHTQKSLTQSPGK"
19300,0.978,–,–,"feline IgG1a mutant ID No. 249: S428M, L314K (antibody, part only; not given: variable domains and light chain, not shown: another chain or arm of the molecule; small tags and cut ends) constant: ASTTAPSVFPLAPSCGTTSGATVALACLVLGYFPEPVTVSWNSGALTSGVHTFPAVLQASGLYSLSSMVTVPSSRWLSDTFTCNVAHPPSNTKVDKTVRKTDHPPGPKPCDCPKCPPPEMLGGPSIFIFPPKPKDTLSISRTPEVTCLVVDLGPDDSDVQITWFVDNTQVYTAKTSPREEQFNSTYRVVSVLPILHQDWKKGKEFKCKVNSKSLPSPIERTISKAKGQPHEPQVYVLPPAQEELSRNKVSVTCLIKSFHPPDIAVEWEITGQPEPENNYRTTPPQLDSDGTYFVYSKLSVDRSHWQRGNTYTCSVMHEALHSHHTQKSLTQSPGK"
–,–,67.2,4.56,"feline IgG1a Q311R (antibody, part only; not given: Variable domains, not shown: another chain or arm of the molecule) constant: ASTTAPSVFPLAPSCGTTSGATVALACLVLGYFPEPVTVSWNSGALTSGVHTFPAVLQASGLYSLSSMVTVPSSRWLSDTFTCNVAHPPSNTKVDKTVRKTDHPPGPKPCDCPKCPPPEMLGGPSIFIFPPKPKDTLSISRTPEVTCLVVDLGPDDSDVQITWFVDNTQVYTAKTSPREEQFNSTYRVVSVLPILHRDWLKGKEFKCKVNSKSLPSPIERTISKAKGQPHEPQVYVLPPAQEELSRNKVSVTCLIKSFHPPDIAVEWEITGQPEPENNYRTTPPQLDSDGTYFVYSKLSVDRSHWQRGNTYTCSVSHEALHSHHTQKSLTQSPGK"
–,–,1750,4.85,"feline IgG1a Q311K (antibody, part only; not given: Variable domains, not shown: another chain or arm of the molecule) constant: ASTTAPSVFPLAPSCGTTSGATVALACLVLGYFPEPVTVSWNSGALTSGVHTFPAVLQASGLYSLSSMVTVPSSRWLSDTFTCNVAHPPSNTKVDKTVRKTDHPPGPKPCDCPKCPPPEMLGGPSIFIFPPKPKDTLSISRTPEVTCLVVDLGPDDSDVQITWFVDNTQVYTAKTSPREEQFNSTYRVVSVLPILHKDWLKGKEFKCKVNSKSLPSPIERTISKAKGQPHEPQVYVLPPAQEELSRNKVSVTCLIKSFHPPDIAVEWEITGQPEPENNYRTTPPQLDSDGTYFVYSKLSVDRSHWQRGNTYTCSVSHEALHSHHTQKSLTQSPGK"
–,–,5100,4.97,"feline IgG1a Q311M (antibody, part only; not given: Variable domains, not shown: another chain or arm of the molecule) constant: ASTTAPSVFPLAPSCGTTSGATVALACLVLGYFPEPVTVSWNSGALTSGVHTFPAVLQASGLYSLSSMVTVPSSRWLSDTFTCNVAHPPSNTKVDKTVRKTDHPPGPKPCDCPKCPPPEMLGGPSIFIFPPKPKDTLSISRTPEVTCLVVDLGPDDSDVQITWFVDNTQVYTAKTSPREEQFNSTYRVVSVLPILHMDWLKGKEFKCKVNSKSLPSPIERTISKAKGQPHEPQVYVLPPAQEELSRNKVSVTCLIKSFHPPDIAVEWEITGQPEPENNYRTTPPQLDSDGTYFVYSKLSVDRSHWQRGNTYTCSVSHEALHSHHTQKSLTQSPGK"
–,–,77.1,7,"feline IgG1a Q311I (antibody, part only; not given: Variable domains, not shown: another chain or arm of the molecule) constant: ASTTAPSVFPLAPSCGTTSGATVALACLVLGYFPEPVTVSWNSGALTSGVHTFPAVLQASGLYSLSSMVTVPSSRWLSDTFTCNVAHPPSNTKVDKTVRKTDHPPGPKPCDCPKCPPPEMLGGPSIFIFPPKPKDTLSISRTPEVTCLVVDLGPDDSDVQITWFVDNTQVYTAKTSPREEQFNSTYRVVSVLPILHIDWLKGKEFKCKVNSKSLPSPIERTISKAKGQPHEPQVYVLPPAQEELSRNKVSVTCLIKSFHPPDIAVEWEITGQPEPENNYRTTPPQLDSDGTYFVYSKLSVDRSHWQRGNTYTCSVSHEALHSHHTQKSLTQSPGK"
23.7,5.7,–,–,"feline IgG1a mutant ID No. 248: S428M, D312P (antibody, part only; not given: Variable domains, not shown: another chain or arm of the molecule) constant: ASTTAPSVFPLAPSCGTTSGATVALACLVLGYFPEPVTVSWNSGALTSGVHTFPAVLQASGLYSLSSMVTVPSSRWLSDTFTCNVAHPPSNTKVDKTVRKTDHPPGPKPCDCPKCPPPEMLGGPSIFIFPPKPKDTLSISRTPEVTCLVVDLGPDDSDVQITWFVDNTQVYTAKTSPREEQFNSTYRVVSVLPILHQPWLKGKEFKCKVNSKSLPSPIERTISKAKGQPHEPQVYVLPPAQEELSRNKVSVTCLIKSFHPPDIAVEWEITGQPEPENNYRTTPPQLDSDGTYFVYSKLSVDRSHWQRGNTYTCSVMHEALHSHHTQKSLTQSPGK"
7.65,0.0902,–,–,"feline IgG1a mutant ID No. 247: S252Y, S428M, S434Y (antibody, part only; not given: Variable domains, not shown: another chain or arm of the molecule) constant: ASTTAPSVFPLAPSCGTTSGATVALACLVLGYFPEPVTVSWNSGALTSGVHTFPAVLQASGLYSLSSMVTVPSSRWLSDTFTCNVAHPPSNTKVDKTVRKTDHPPGPKPCDCPKCPPPEMLGGPSIFIFPPKPKDTLYISRTPEVTCLVVDLGPDDSDVQITWFVDNTQVYTAKTSPREEQFNSTYRVVSVLPILHQDWLKGKEFKCKVNSKSLPSPIERTISKAKGQPHEPQVYVLPPAQEELSRNKVSVTCLIKSFHPPDIAVEWEITGQPEPENNYRTTPPQLDSDGTYFVYSKLSVDRSHWQRGNTYTCSVMHEALHYHHTQKSLTQSPGK"
6.68,–,–,–,"feline IgG1a mutant ID No. 353: S252Y, S428M, S434F, S254V (antibody, part only; not given: Variable domains, not shown: another chain or arm of the molecule) constant: ASTTAPSVFPLAPSCGTTSGATVALACLVLGYFPEPVTVSWNSGALTSGVHTFPAVLQASGLYSLSSMVTVPSSRWLSDTFTCNVAHPPSNTKVDKTVRKTDHPPGPKPCDCPKCPPPEMLGGPSIFIFPPKPKDTLYIVRTPEVTCLVVDLGPDDSDVQITWFVDNTQVYTAKTSPREEQFNSTYRVVSVLPILHQDWLKGKEFKCKVNSKSLPSPIERTISKAKGQPHEPQVYVLPPAQEELSRNKVSVTCLIKSFHPPDIAVEWEITGQPEPENNYRTTPPQLDSDGTYFVYSKLSVDRSHWQRGNTYTCSVMHEALHFHHTQKSLTQSPGK"
1300,–,–,–,"feline IgG1a mutant ID No. 323: S428Y, D312P, S434Y, D399M, D401R, T403R (antibody, part only; not given: Variable domains, not shown: another chain or arm of the molecule) constant: ASTTAPSVFPLAPSCGTTSGATVALACLVLGYFPEPVTVSWNSGALTSGVHTFPAVLQASGLYSLSSMVTVPSSRWLSDTFTCNVAHPPSNTKVDKTVRKTDHPPGPKPCDCPKCPPPEMLGGPSIFIFPPKPKDTLSISRTPEVTCLVVDLGPDDSDVQITWFVDNTQVYTAKTSPREEQFNSTYRVVSVLPILHQPWLKGKEFKCKVNSKSLPSPIERTISKAKGQPHEPQVYVLPPAQEELSRNKVSVTCLIKSFHPPDIAVEWEITGQPEPENNYRTTPPQLMSRGRYFVYSKLSVDRSHWQRGNTYTCSVYHEALHYHHTQKSLTQSPGK"
–,–,9940,9.96,"feline IgG1a Y404Q (antibody, part only; not given: Variable domains, not shown: another chain or arm of the molecule) constant: ASTTAPSVFPLAPSCGTTSGATVALACLVLGYFPEPVTVSWNSGALTSGVHTFPAVLQASGLYSLSSMVTVPSSRWLSDTFTCNVAHPPSNTKVDKTVRKTDHPPGPKPCDCPKCPPPEMLGGPSIFIFPPKPKDTLSISRTPEVTCLVVDLGPDDSDVQITWFVDNTQVYTAKTSPREEQFNSTYRVVSVLPILHQDWLKGKEFKCKVNSKSLPSPIERTISKAKGQPHEPQVYVLPPAQEELSRNKVSVTCLIKSFHPPDIAVEWEITGQPEPENNYRTTPPQLDSDGTQFVYSKLSVDRSHWQRGNTYTCSVSHEALHSHHTQKSLTQSPGK"
4.89,–,–,–,"feline IgG1a mutant ID No. 350: S252Y, S428M, S434F, Q311M (antibody, part only; not given: Variable domains, not shown: another chain or arm of the molecule) constant: ASTTAPSVFPLAPSCGTTSGATVALACLVLGYFPEPVTVSWNSGALTSGVHTFPAVLQASGLYSLSSMVTVPSSRWLSDTFTCNVAHPPSNTKVDKTVRKTDHPPGPKPCDCPKCPPPEMLGGPSIFIFPPKPKDTLYISRTPEVTCLVVDLGPDDSDVQITWFVDNTQVYTAKTSPREEQFNSTYRVVSVLPILHMDWLKGKEFKCKVNSKSLPSPIERTISKAKGQPHEPQVYVLPPAQEELSRNKVSVTCLIKSFHPPDIAVEWEITGQPEPENNYRTTPPQLDSDGTYFVYSKLSVDRSHWQRGNTYTCSVMHEALHFHHTQKSLTQSPGK"
–,–,21,0.745,"feline IgG1a S434F (antibody, part only; not given: Variable domains, not shown: another chain or arm of the molecule) constant: ASTTAPSVFPLAPSCGTTSGATVALACLVLGYFPEPVTVSWNSGALTSGVHTFPAVLQASGLYSLSSMVTVPSSRWLSDTFTCNVAHPPSNTKVDKTVRKTDHPPGPKPCDCPKCPPPEMLGGPSIFIFPPKPKDTLSISRTPEVTCLVVDLGPDDSDVQITWFVDNTQVYTAKTSPREEQFNSTYRVVSVLPILHQDWLKGKEFKCKVNSKSLPSPIERTISKAKGQPHEPQVYVLPPAQEELSRNKVSVTCLIKSFHPPDIAVEWEITGQPEPENNYRTTPPQLDSDGTYFVYSKLSVDRSHWQRGNTYTCSVSHEALHFHHTQKSLTQSPGK"
33.2,5.56,–,–,"feline IgG1a mutant ID No. 250: S428M, Q311W (antibody, part only; not given: Variable domains, not shown: another chain or arm of the molecule) constant: ASTTAPSVFPLAPSCGTTSGATVALACLVLGYFPEPVTVSWNSGALTSGVHTFPAVLQASGLYSLSSMVTVPSSRWLSDTFTCNVAHPPSNTKVDKTVRKTDHPPGPKPCDCPKCPPPEMLGGPSIFIFPPKPKDTLSISRTPEVTCLVVDLGPDDSDVQITWFVDNTQVYTAKTSPREEQFNSTYRVVSVLPILHWDWLKGKEFKCKVNSKSLPSPIERTISKAKGQPHEPQVYVLPPAQEELSRNKVSVTCLIKSFHPPDIAVEWEITGQPEPENNYRTTPPQLDSDGTYFVYSKLSVDRSHWQRGNTYTCSVMHEALHSHHTQKSLTQSPGK"
